The results in this text go back to patent publication US20230181718A1.

The target in the assay is Endo-H treated SApNPs. Nature of the assay: BLI, Octet RED96; Endo-H treated against wildtype SApNPs.

Substance VRC01 (antibody) returned a fold higher binding than the wildtype SApNPs of 2 to 3.5 fold.
